“Also recorded” adds a separate entry of the source. No end group written: not given here.
Tests used:
[1] = biological target: T1, GPR135 (RXFP3) (Homo sapiens, UniProt Q9NSD7); experiment: cAMP HTRF assay on Euroscreen RXFP3 recombinant cells; format: cell-based; conditions: increasing concentrations, 30 min; FIG. 5
T1 construct: host or cells: CHO-K1 recombinant cell line (Euroscreen)
T1 sequence (Q9NSD7 1-469): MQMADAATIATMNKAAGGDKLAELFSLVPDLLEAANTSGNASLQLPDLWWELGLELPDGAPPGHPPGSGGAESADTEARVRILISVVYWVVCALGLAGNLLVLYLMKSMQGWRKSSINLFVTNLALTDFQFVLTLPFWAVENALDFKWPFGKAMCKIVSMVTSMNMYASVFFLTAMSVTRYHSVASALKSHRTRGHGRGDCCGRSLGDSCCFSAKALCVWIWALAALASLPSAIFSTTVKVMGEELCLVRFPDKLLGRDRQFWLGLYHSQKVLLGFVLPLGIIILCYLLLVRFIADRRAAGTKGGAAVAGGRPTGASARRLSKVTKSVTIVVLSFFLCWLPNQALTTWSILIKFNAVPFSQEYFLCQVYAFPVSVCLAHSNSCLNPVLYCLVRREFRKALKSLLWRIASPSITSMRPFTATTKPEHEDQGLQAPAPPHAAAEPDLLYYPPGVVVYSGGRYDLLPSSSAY
Method: The ability of P59C13V (SEQ ID NO: 6) and H3 Relaxin to activate CHO-K1 cells transfected by GPR135 (RXFP3), which is a non-LGR, Relaxin related receptor, was tested. The assay was performed by Euroscreen. For cAMP concentration analysis, Euroscreen cat. ES-656-A-cells (RXFP3, Euroscreen cat. ES-656-A) grown to mid-log phase in culture media without antibiotics were detached with PBS-EDTA, centrifuged and resuspended in assay buffer at a concentration of […]. The test was performed in 96 well plates. For agonist testing, 12 μl of cells (5×10^3 cells/well) were mixed with 12 μl of agonist Either H3-Relaxin or P59C13V (P59) (SEQ ID NO: 6) at increasing concentrations. The plates were then incubated for 30 min at room temperature. After addition of the lysis buffer, cAMP concentrations were estimated, according to the manufacturer specification, with the HTRF kit from Cis-Bio International (cat no 62AM2PEB).
.Relaxin 3 Fit (Eeuroscreen) was used as a positive control. RXFP3 (GPCR135) transfected cells were challenged with increasing concentrations of Relaxin 3 (H3 Relaxin—as a positive control—[…]) or P59C13V (P59) (SEQ ID NO: 6) (1 nM-3 uM).

[2] = biological target: T2, LGR6 (Homo sapiens, UniProt Q9HBX8); experiment: cAMP accumulation in CHO-K1 cells transiently transfected with LGR6; format: cell-based; conditions: 1 uM, without Forskolin, FIG. 3A
T2 construct: expressed in transfected cells; host or cells: CHO-K1 (transient)
T2 sequence (Q9HBX8 25-967): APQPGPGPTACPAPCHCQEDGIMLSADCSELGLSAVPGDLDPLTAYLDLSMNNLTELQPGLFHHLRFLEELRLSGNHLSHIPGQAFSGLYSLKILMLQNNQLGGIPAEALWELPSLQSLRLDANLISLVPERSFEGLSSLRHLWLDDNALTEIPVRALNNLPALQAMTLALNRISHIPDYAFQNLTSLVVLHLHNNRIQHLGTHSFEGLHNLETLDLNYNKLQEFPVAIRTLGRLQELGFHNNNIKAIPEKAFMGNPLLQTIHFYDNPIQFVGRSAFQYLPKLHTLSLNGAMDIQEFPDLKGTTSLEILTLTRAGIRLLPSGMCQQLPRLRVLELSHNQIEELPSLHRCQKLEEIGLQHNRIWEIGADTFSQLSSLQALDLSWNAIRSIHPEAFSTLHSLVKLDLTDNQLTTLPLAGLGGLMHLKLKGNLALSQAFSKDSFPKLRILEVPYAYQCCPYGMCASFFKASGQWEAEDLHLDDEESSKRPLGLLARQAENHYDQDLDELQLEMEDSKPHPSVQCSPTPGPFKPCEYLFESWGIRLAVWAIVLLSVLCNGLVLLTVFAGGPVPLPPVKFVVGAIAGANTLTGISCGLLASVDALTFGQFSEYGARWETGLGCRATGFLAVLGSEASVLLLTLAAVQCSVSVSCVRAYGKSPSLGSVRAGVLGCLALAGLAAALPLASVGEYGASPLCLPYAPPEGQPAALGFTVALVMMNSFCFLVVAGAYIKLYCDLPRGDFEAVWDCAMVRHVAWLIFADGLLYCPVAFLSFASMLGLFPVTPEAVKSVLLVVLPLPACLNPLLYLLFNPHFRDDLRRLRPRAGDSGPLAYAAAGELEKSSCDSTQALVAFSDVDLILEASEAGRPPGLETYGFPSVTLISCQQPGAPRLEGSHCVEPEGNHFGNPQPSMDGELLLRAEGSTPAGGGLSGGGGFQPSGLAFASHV
Method: [The procedure below names another target; the source says it served here with some conditions changed.] LGR7 (RXFP1) or LGR8 (RXFP2) were transiently transfected into CHO-K1 cells as follows: Cells (12 million) were plated into T75 flasks on the day preceding transfection. Cells were transfected with a GPCR DNA and Gα16 using a lipid technique according to the manufacturer's recommendation. Cells were transfected for 5 hours, then re-plated into 96-well dishes (60,000 cells per well) and grown overnight. Transfected cells were plated into 24 wells of a 96-well plate. Cells were pre-treated with 0.5 mM IBMX (stimulation buffer) for 10 min at 37° C., then stimulated with either a positive control (Relaxin 2) or a candidate peptide (for Gs functional examination), followed by stimulation or a preincubation with 10 μM forskolin (for Gi functional examination). Following a 20 minutes stimulation by incubation with 1 μM of either positive control or the tested peptides, either with or without forskolin, intracellular cAMP was assayed using the Hit Hunter cAMP kit (DiscoveRx Corporation) according to the manufacturer's recommended protocol. Data was converted to nmol of cAMP by running a standard cAMP curve.

Substance	cAMP activation (Gs) of RXFP3 [1]	Gs activation (cAMP accumulation) [2]
GQKGQVGPPGAAVRRAYAAFSV [Peptide P59C13V]	didn't show any cAMP activation (Gs)	
GQKGQVGPPGAAVRRAYAAFSVGRRAYAAFSV-OH [Peptide P74C13V]		significant increase in cAMP accumulation; also recorded: slight Gs activation

Source: patent US8492329B2, “Bioactive peptides and methods of using same” (Compugen Ltd., priority 2007, dated 2013)
